{
  "source": "patent US20100183645A1",
  "about": "“ACTIVE OR PASSIVE IMMUNIZATION AGAINST PROAPOPTOTIC NEUROTROPHINS FOR THE TREATMENT AND/OR PREVENTION OF NEURODEGENERATIVE DISEASES” (INSTITUT PASTEUR, priority 2003, published 2010)",
  "molecules": {"B1": {"name": "NGF: mouse NGF (2.5S) from Harlan; nerve growth factor, also the immunogen in aluminum phosphate adjuvant (protein)", "chain": "SSTHPVFHMGEFSVCDSVSVWVGDKTTATDIKGKEVTVLAEVNINNSVFRQYFFETKCRASNPVESGCRGIDSKHWNSYCTTTHTFVKALTTDEKQAAWRFIRIDTACVCVLSRKATRRG"}},
  "key": {"[1]": {"molecular_target": "T1, p75NTR (Homo sapiens, UniProt P08138)", "T1 sequence (P08138 29-427)": "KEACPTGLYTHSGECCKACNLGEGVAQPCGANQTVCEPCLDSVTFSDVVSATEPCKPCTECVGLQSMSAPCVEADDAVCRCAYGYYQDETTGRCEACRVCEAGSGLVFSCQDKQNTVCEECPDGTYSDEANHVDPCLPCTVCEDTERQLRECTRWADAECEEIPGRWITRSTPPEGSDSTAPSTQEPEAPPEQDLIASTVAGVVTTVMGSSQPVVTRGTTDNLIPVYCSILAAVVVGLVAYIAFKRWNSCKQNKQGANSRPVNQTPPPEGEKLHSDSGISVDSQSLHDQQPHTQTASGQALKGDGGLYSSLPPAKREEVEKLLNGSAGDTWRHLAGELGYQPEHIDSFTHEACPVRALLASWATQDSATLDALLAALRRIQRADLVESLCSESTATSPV", "conditions": "Beglova et al, 2000; Saragovi et al, 2000, 2002; cited from earlier work"}, "[2]": {"test_system": "cultured spinal cord astrocytes", "assay": "ELISA determination of NGF secreted by cultured spinal cord astrocytes", "assay_type": "cell-based, rat", "conditions": "peroxynitrite 0.5 mM", "description": "Cell cultures and treatments. Primary astrocyte cultures were prepared from the spinal cords of rats aged 1-2 days according to the procedures of Saneto and De Vellis (1987), with minor modifications (Cassina et al., 2002). Astrocytes were plated at a density of 2×10^4 cells/cm^2 and maintained in DMEM supplemented with 10% fetal bovine serum, HEPES (3.6 g/l), penicillin ([…]) and streptomycin (100 μg/ml). The astrocyte monolayers were >98% pure as determined by GFAP immunoreactivity and were devoid of OX42-positive microglial cells.\nTreatments with peroxynitrite and LPS. Peroxynitrite was generously provided by Dr. Rafael Radi (UDELAR, Uruguay) and its concentration determined spectrophotometrically at 302 nm (e=1700 M^−1 cm^−1). Confluent astrocyte monolayers were washed with Dulbecco's phosphate-buffered saline (PBS), supplemented with 0.8 mM MgCl2, 1 mM CaCl2, and 5 mM glucose, and then incubated in 1 ml of 50 mM Na2HPO4, 90 mM NaCl, 5 mM KCl, 0.8 mM MgCl2, 1 mM CaCl2, and 5 mM glucose, pH 7.4. Finally, three additions of 5 μL bolus of peroxynitrite were made to reach the final concentration of 0.5 mM. […]\nDetermination of NGF/proNGF. The NGF protein concentration in the culture medium from astrocytes or spinal cord extracts was quantified using the NGF Emax ImmunoAssay System kit (Promega) following the manufacturer's instructions."}, "[3]": {"test_system": "motor neurons plated on astrocyte monolayers", "assay": "Motor neuron survival in astrocyte-motor neuron co-cultures", "assay_type": "cell-based, rat", "description": "Cell cultures and treatments. […] Astrocytes were plated at a density of 2×10^4 cells/cm^2 and maintained in DMEM supplemented with 10% fetal bovine serum, HEPES (3.6 g/l), penicillin ([…]) and streptomycin (100 μg/ml).\nFor co-culture experiments, motor neurons were plated on astrocyte monolayers at a density of 300 cells/cm^2 and maintained in L15 medium supplemented with 0.63 mg/ml bicarbonate, 5 μg/ml insulin, 0.1 mg/ml conalbumin, 0.1 mM putrescine, 30 nM sodium selenite, 20 nM progesterone, 20 mM glucose, 100 IU/ml penicillin, 100 μg/ml streptomycin, and 2% horse serum. Drugs and blocking antibodies were added 3 h after plating at the indicated concentrations.\nTreatments with peroxynitrite and LPS. Peroxynitrite was generously provided by Dr. Rafael Radi (UDELAR, Uruguay) and its concentration determined spectrophotometrically at 302 nm (e=1700 M^−1 cm^−1). Confluent astrocyte monolayers were washed with Dulbecco's phosphate-buffered saline (PBS), supplemented with 0.8 mM MgCl2, 1 mM CaCl2, and 5 mM glucose, and then incubated in 1 ml of 50 mM Na2HPO4, 90 mM NaCl, 5 mM KCl, 0.8 mM MgCl2, 1 mM CaCl2, and 5 mM glucose, pH 7.4. Finally, three additions of 5 μL bolus of peroxynitrite were made to reach the final concentration of 0.5 mM. Five minutes after peroxynitrite exposure, the buffer was removed and replaced with L15 medium, supplemented as described above. In co-culture experiments, motor neurons were plated 1 h after peroxynitrite exposure. […] LPS (from E. coli 026-B6 Cat. No L2654 Sigma) was directly applied to astrocyte monolayers 24 h before and immediately after plating of motor neurons in coculture experiments."}, "[4]": {"test_system": "pure motor neuron cultures", "assay": "Motor neuron survival in pure motor neuron cultures maintained with GDNF", "assay_type": "cell-based, rat", "conditions": "NGF 100 ng/ml", "description": "Purified motor neuron cultures were plated at a density of 300 cells/cm^2 in dishes precoated with polyornithinelaminin and maintained in Neurobasal medium supplemented with 2% horse serum, […] L-glutamate, 25 μM β-mercaptoethanol, 0.5 mM L-glutamine, and 2% B-27 supplement (Gibco-Invitrogen). Blocking antibodies were added 3 h after plating at the indicated dilutions. The generation of a low steady state concentration (<50 nM) of nitric oxide was generated by the spontaneous deassociation of 10 μM DETA-NONate (Cayman).\nTo assess the pro-apoptotic activity of conditioned media, astrocyte monolayers were incubated for 24 h in Neurobasal medium supplemented as described above, and that medium immediately used to replace the medium of pure motor neuron cultures established 24 h before. Blocking antibodies and DETA-NONOate were added to the conditioned media and motor neuron survival determined after 48 h.\nTo assess the pro-apoptotic activity in spinal cord extracts, lumbar cords were dissected from 90 day-old G93A mice or non-transgenic littermates over ice under sterile conditions. To 100 mg of tissue were added 0.4 ml of PBS containing 3 mM EGTA, 1 mM EDTA, 0.5 μg/ml aprotinin, 0.5 μg/ml pepstatin and 0.1 mM PMSF at 0° C., and the tissue was then homogenized under sterile conditions. Homogenates were centrifuged at 40,000 g for 1 hr and the clear supernatants collected and kept at −80° C. until used. Aliquots were added to motor neuron cultures to reach a final protein concentration of 0.5 μg/ml. In all cases, blocking antibodies and drugs were added 3 h after motor neuron plating. The generation of a steady state concentration (<50 nM) of nitric oxide was obtained by the spontaneous disassociation of 10 μM NOC-18 (Dojindo, Gaithersburg).\nCell counts. Motor neuron survival was assessed by directly counting all cells displaying intact neurites longer than 4 cells in diameter following immunostaining against p 75NTR Counts were performed over an area of 2.76 cm^2 in the center of 35 mm dishes or in an area measuring 0.90 cm^2 along a diagonal in 24-well plates (Cassina et al., 2002). The mean density of motor neurons in control cocultures was 90±4 cells/cm^2.\nProtocol for preparation of muscle extracts and western blotting. Quadriceps muscles were dissected from symptomatic G93A SOD1 or non transgenic littermate mice over ice under sterile conditions. To 1 g of tissues was added 4 ml of PBS containing 3 mM EGTA, 1 mM EDTA, 0.5 mg/ml aprotinin, 0.5 mg/ml pepstatin and 0.1 mM PMSF at 0° C., and the tissue was homogenized under sterile conditions. Homogenates were centrifuged at 40,000 g for 1 hr and the clear supernatants collected and kept at −80° C. until used. Quadriceps were homogenized in lysis buffer containing 2 mM EDTA, 1% SDS, 1 mM PMSF, 10 μg/ml aprotinin, 1 μg/ml leupeptin and 0.5 mM sodium vanadate. Protein quantification was performed using the BCA Protein Assay Reagent kit (Pierce Biotechnology). The samples were prepared in Laemmli buffer supplemented with […] and proteins were transferred to nitrocellulose membrane (Amersham). Membranes were blocked for 2 h in blocking buffer (5% BSA, 0.1% Tween 20 in Tris-buffered saline (TBS), pH 7.4) followed by an over-night incubation with the primary antibody diluted in blocking buffer. […]"}, "[5]": {"test_system": "G93A SOD-1 transgenic mice", "assay": "ALS-like disease progression and survival after systemic immunization against NGF", "assay_type": "in vivo", "description": "Systemic immunization against NGF on ALS-like disease progression and survival in transgenic mouse overexpressing mutant G93A-SOD1 gene. Animals. The transgenic mouse line overexpressing mutant G93A-SOD1 gene [TgN(SOD1-G93A)1Gur, a high expression mouse line] and the mating pairs were purchased from Jackson laboratory (Bar Harbor, Me., USA). Mice were housed and bred as described previously (Gurney et al. 1994) in accordance with the Institutional Animal Care guidelines.\nImmunization protocol. Adult, female, 40-50 day-old mice, initially weighing 18-24 g, were used for these experiments. Mice were group-housed 5 mice per cage and allowed free access to food and water. For testing, a total of 10 mice per group were autoimmunized against NGF. Each received […] of 25 μg of 2.5S mouse NGF (Harlam, USA) in 0.1 ml of a suspension of aluminum phosphate used as adjuvant. A second injection of 2.5S NGF (50 μg) in the same adjuvant was given 3 weeks later. Non-transgenic and vehicle-injected mice served as control animals for survival tests.\nAnalysis of ALS-like disease progression and survival in transgenic mouse. Mice were examined daily for paralysis, disease progression and survival analysis. The initial symptoms of hind leg paralysis or failure to remain suspended in an inverted grid were considered as the disease progression threshold. Mice were killed at terminal stage, i.e. severely paralysis and inability to seek food and water."}},
  "note": "No end group written: not given here.",
  "data": [
    {"molecule": "short cyclic peptide derived from an exposed loop of mature NGF (residues C30-C35): short cyclic peptide from an exposed loop of mature NGF, involved in NGF-p75NTR interactions (DIKGKE; also: cyclic peptide, ring closure not given here; UniProt P01139 151-156, looked up, fragment)", "values": [
      {"measurement": "Blocking of neurotrophin binding to p75NTR", "setting": "[1]", "result": "specifically block"}
    ]},
    {"molecule": "O=NOO", "note": "[peroxynitrite]", "values": [
      {"measurement": "Increase of NGF secretion to the culture medium", "setting": "[2]; 24 hours after treatment, LPS 1 μg/ml", "result": "~9", "unit": "fold"},
      {"measurement": "NGF concentration in conditioned culture media versus controls", "setting": "[2]; after 3 days", "result": 5, "unit": "fold"}
    ]},
    {"molecule": "B1", "values": [
      {"measurement": "Motor neurons with fewer neurites, immunoreactive for nitrotyrosine and cleaved caspase-3", "setting": "[3]; NGF 100 ng/ml, after 24 h in culture", "result": "Approximately 50%"},
      {"measurement": "Survival of motor neurons cultured on unstimulated astrocytes", "setting": "[3]; NGF 0.1-100 ng/ml, 72 h", "result": "reduced in a dose-dependent manner"},
      {"measurement": "Motor neuron survival after pre-incubation of the astrocyte monolayer", "setting": "[3]; NGF removed before neuron plating", "result": "no effect"},
      {"measurement": "Subset of motor neurons vulnerable to NGF in culture", "setting": "[3]; co-cultures", "result": "~40", "unit": "%"},
      {"measurement": "Motor neuron apoptosis in the presence of nitric oxide", "setting": "[4]; nitric oxide <50 nM from 10 μM NOC-18", "result": "induce motor neuron apoptosis"},
      {"measurement": "Survival of motor neurons maintained with GDNF", "setting": "[4]; no nitric oxide donor", "result": "no effect"},
      {"measurement": "Tolerability of NGF autoimmunization", "setting": "[5]; all NGF autoimmunized mice", "result": "gained weight and did not display any signs of discomfort"},
      {"measurement": "Delay of survival versus mice injected with adjuvant only", "setting": "[5]; female G93A mice, NGF in aluminum phosphate s.c., in average", "result": "10 to 15", "unit": "days"},
      {"measurement": "Disease onset", "setting": "[5]; in most of the NGF autoimmunized mice", "result": "delayed"}
    ]}
  ]
}
